{
  "source": "paper PMC4356968",
  "about": "“Characterization of the MCM homohexamer from the thermoacidophilic euryarchaeon Picrophilus torridus” (Scientific Reports, 2015)",
  "key": {"PtMCM": {"target": "T1, PtMCM (Picrophilus oshimae, UniProt A0A8G2FX57, K337A)", "T1 construct": "gene SAMN02745355_1050; full length, N-terminal 6xHis and C-terminal Strep-tag kept; E. coli BL21 Codon Plus; tagged monomer 81 kDa (untagged ~76 kDa); homohexamer", "T1 sequence (A0A8G2FX57 entry or part of it K337A)": "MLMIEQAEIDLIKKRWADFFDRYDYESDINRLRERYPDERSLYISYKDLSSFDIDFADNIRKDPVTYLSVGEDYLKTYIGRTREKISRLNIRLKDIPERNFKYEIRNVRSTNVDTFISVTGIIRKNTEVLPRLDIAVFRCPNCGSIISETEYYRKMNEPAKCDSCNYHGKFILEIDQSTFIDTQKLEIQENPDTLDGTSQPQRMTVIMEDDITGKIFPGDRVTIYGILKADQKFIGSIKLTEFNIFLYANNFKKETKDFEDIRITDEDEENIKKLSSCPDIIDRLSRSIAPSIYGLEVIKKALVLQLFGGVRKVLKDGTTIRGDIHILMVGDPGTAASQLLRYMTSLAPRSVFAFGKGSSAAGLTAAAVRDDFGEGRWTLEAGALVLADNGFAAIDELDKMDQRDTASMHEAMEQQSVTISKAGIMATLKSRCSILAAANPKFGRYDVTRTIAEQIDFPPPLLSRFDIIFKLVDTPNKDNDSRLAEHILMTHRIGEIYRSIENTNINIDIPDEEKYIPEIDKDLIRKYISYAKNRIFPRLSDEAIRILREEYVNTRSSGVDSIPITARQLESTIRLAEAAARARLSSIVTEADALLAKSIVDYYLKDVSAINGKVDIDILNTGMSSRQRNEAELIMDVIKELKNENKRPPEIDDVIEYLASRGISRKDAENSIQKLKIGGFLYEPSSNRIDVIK", "assay": "ATP hydrolysis, gamma-32P ATP tracer, TLC", "assay_type": "biochemical", "details": "pH 6.0, 55 °C, 10 or 100 uM ATP, no DNA, 800 nM protein, 60 min; Walker A mutant"}, "[1]": {"target": "His-PtGINS (Picrophilus torridus GINS, recombinant) (Picrophilus torridus)", "assay": "SEC; Superdex 200 10/300 GL calibrated with protein standards, 50 mM potassium phosphate pH 7.4, 150 mM NaCl; molecular weight from retention volume; PtMCM 400 ug, profile unchanged over 1.5 to 5 uM protein"}, "[2]": {"target": "His-PtMCM-Strep (Picrophilus torridus MCM, recombinant) (Picrophilus torridus)"}, "[3]": {"target": "His-PtMCM-Strep (Picrophilus torridus MCM, recombinant) (Picrophilus torridus)", "remark": "listed apart in the source"}, "[4]": {"target": "His-PtMCM-Strep (Picrophilus torridus MCM, recombinant) (Picrophilus torridus)", "remark": "listed apart in the source"}, "[5]": {"target": "His-PtMCM-Strep (Picrophilus torridus MCM, recombinant) (Picrophilus torridus)", "assay": "SEC; Superdex 200 10/300 GL calibrated with protein standards, 50 mM potassium phosphate pH 7.4, 150 mM NaCl; molecular weight from retention volume; PtMCM 400 ug, profile unchanged over 1.5 to 5 uM protein"}},
  "data": [
    {"compound": "Nc1ncnc2c1ncn2[C@@H]1O[C@H](COP(=O)(O)OP(=O)(O)OP(=O)(O)O)[C@@H](O)[C@H]1O", "note": "[ATP]", "values": [
      {"measurement": "ATP hydrolysis, gamma-32P ATP tracer, TLC", "setting": "PtMCM", "result": "ATPase activity was drastically diminished in case of the mutant PtMCM-K337A"}
    ]},
    {"compound": "His-PtGINS (Picrophilus torridus GINS, recombinant) (natural protein)", "values": [
      {"measurement": "stoichiometry N", "setting": "[1]", "result": 4},
      {"measurement": "MCM ATP hydrolysis with 100 uM ATP, 500 nM PtMCM and 3000 nM PtGINS, pH 3-7, with or without DNA, 60 min; fold increase with GINS at lower pH (no effect at pH 5-7)", "setting": "[2]", "result": 2, "unit": "fold"},
      {"measurement": "ATP hydrolysed during the helicase reaction at pH 6, 3-5 mM ATP, 500 nM PtMCM and 3000 nM PtGINS, 60 min; fold stimulation by GINS", "setting": "[3]", "result": 2, "unit": "fold"},
      {"measurement": "ATP hydrolysed during the helicase reaction at pH 4, 5 mM ATP, 500 nM PtMCM and 3000 nM PtGINS, 60 min; fold stimulation by GINS", "setting": "[4]", "result": "> 50", "unit": "fold"}
    ]},
    {"compound": "His-PtMCM-Strep (Picrophilus torridus MCM, recombinant) (enzyme)", "values": [
      {"measurement": "stoichiometry N", "setting": "[5]", "result": 6}
    ]}
  ]
}
